In assay [1] the target is T1, cynomolgus IL-17RA on the cell surface (cynomolgus).
T1 construct: whole, on cells; also called CHO-cynoIL-17RA; cyno IL-17RA+ CHO cells
As to the kind of experiment: FACS competition, non-clonal hybridoma supernatant vs biotin-huIL-17A (500 ng/ml) on cynomolgus IL-17RA+ CHO cells; lower = more inhibition.
Method: Non-clonal hybridoma supernatants were prepared in volumes of 1-2 mls (the Ig concentrations were not determined for these supernatants). […] Anti-IL-17RA non-clonal hybridomas were selected for sub-cloning based on their performance in the CHO-IL-17RA FACS assay and HFF bioassay.

Assay [2] concerns the target T1, cynomolgus IL-17RA on the cell surface. As to the kind of experiment: FACS competition, non-clonal hybridoma supernatant vs biotin-huIL-17A (500 ng/ml) on cyno IL-17RA+ cells; lower = more inhibition.
For assay [3] the target is unchanged. As to the kind of experiment: FACS competition, non-clonal hybridoma supernatant vs biotin-huIL-17A (500 ng/ml) on cyno IL-17RA+ CHO cells; lower = more inhibition.
Method: The anti-IL-17RA antibodies were characterized. Non-clonal hybridoma supernatants were prepared in volumes of 1-2 mls (the Ig concentrations were not determined for these supernatants).
The target is the same in assay [4]. As to the kind of experiment: cell-based or functional assay.
The target of assay [5] is T2, D152R IL-17RA mutant (human, UniProt Q96F46 33-320).
T2 construct: Arginine scan mutant of huIL-17RA-FLAG-polyHis; also called huIL-17RA-FLAG-polyHis D152R
T2 sequence (Q96F46 other isoform, or with tags, fused parts or gaps D152R D152R limits assumed): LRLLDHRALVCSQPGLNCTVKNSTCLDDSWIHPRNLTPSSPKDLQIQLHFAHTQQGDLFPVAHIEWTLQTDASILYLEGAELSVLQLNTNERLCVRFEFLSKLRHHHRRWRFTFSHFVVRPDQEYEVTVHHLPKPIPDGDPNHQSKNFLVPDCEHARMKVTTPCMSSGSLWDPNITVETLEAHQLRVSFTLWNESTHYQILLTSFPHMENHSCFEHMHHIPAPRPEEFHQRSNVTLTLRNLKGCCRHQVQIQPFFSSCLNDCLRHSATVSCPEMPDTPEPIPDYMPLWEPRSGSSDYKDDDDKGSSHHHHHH
As to the kind of experiment: Bio-Plex titration on His-captured D152R IL-17RA mutant; signal as percent of maximum wild-type MFI.
Method: Twelve bead codes of pentaHis-coated beads (Qiagen, Valencia, Calif.; see www1.qiagen.com) were used to capture histidine-tagged protein.
To prepare the beads, 100 ul of wild-type IL-17RA and IL-17RA arginine mutant supernatants from transient expression culture were bound to penta-His-coated beads overnight at 4° C. or 2 hours at room temperature with vigorous shaking. The beads were washed as per the manufacturer's protocol and the 12 bead set was pooled and aliquoted into 2 or 3 columns of a 96-well filter plate (Millipore, Bellerica, Mass., product #MSBVN1250) for duplicate or triplicate assay points, respectively. 100 ul anti-IL-17RA antibodies in 4-fold dilutions were added to the wells, incubated for 1 hour at room temperature, and washed. […] Beads were resuspended in 1% BSA, shaken for 3 minutes, and read on the Bio-Plex workstation. Antibody binding to IL-17RA arginine mutant protein was compared to antibody binding to the human IL-17RA wild-type from the same pool. A titration of antibody over approximately a 5 log scale was performed. Median Fluorescence Intensity (MFI) of IL-17RA arginine mutant proteins was graphed as a percent of maximum wild-type human IL-17RA signal.

Substitutions are numbered along the chain they refer to.

B1: AMH13/AML13 (antibody, IgG2, V domains shown)
VH: QVQLVESGGGVVQPGRSLRLSCAASGFTFSSYGMQWVRQAPGKGLEWVAVIWYDGNKKYYADSVKGRFTISRDNSKNTLYLQMNSLRAEDTAVYYCARGRVRDYYYGMDVWGQGTTVTVSS
VL: DIVMTQTPLSLSVTPGQPASIACKSSQSLLHSDGKTYLYWYLQKPGQPPQLLIYEVSTRFSGVPDRFSGSGSGTDFTLKISRVEAEDVGVFYCMQSIQLPLTFGGGTKVEIK
notes: also called AM-13
On to B1, for which the MFI in assay [1] is 6.

B2: AMH22/AML22 (antibody, IgG2, V domains shown)
VH: QVQLVQSGAEVKKPGASVKVSCKASGYTFTRYGISWVRQAPGQGLEWMGWISAYSGNTNYAQKLQGRVTMTTDTSTSTAYMELRSLRSDDTAVYYCARRQLYFDYWGQGTLVTVSS
VL: EIVMTQSPATLSVSPGERVTLSCRASQSVSSNLAWFQQKPGQAPRPLIYDASTRAAGIPARFSGSGSGTDFTLTISSLQSEDFAVYYCQQYDNWPLTFGGGTKVEIK
notes: also called AM-22
B2: the MFI in assay [2] turned out to be 18.

B3: AMH15/AML15 (antibody, IgG2, V domains shown)
VH: B1 VH
VL: B2 VL
notes: IgG2 XenoMouse; also called AM-15
As to B3, the MFI in assay [3] is 6.

B4: AMH17/AML17 (antibody, V domains shown)
VH: B2 VH with S17A, S25T, F29L, R31S, N59K, R99K, Y102V
VL: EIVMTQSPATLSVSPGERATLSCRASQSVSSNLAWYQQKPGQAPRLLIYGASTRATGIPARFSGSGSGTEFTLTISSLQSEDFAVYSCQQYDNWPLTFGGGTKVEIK
notes: also called AM-17
For B4, the MFI in assay [1] came to 8.

B5: AMH12/AML12 (antibody, IgG2, V domains shown)
VH: B2 VH with F29L, R31S, A53T, S55K, R99K, Y102V
VL: B2 VL with V19A, V29I, N32S, F36Y, P46L, D50G, A56T, D70E, D82N
notes: also called AM-12
As for B5, in assay [1], the MFI came out at 6.

B6: AMH14/AML14 (antibody, IgG2, V domains shown)
VH: B2 VH with A53T
VL: B2 VL with V19A, A56T, I58V
notes: Fully human mAb from IgG2 XenoMouse mice; also called AM-14
On to B6, for which the “IC50, cynomolgous IL-17A-induced IL-6 production from JTC-12 cells” value in assay [4] is approximately 1200 pM. In assay [3], this molecule had an MFI of 10.

B7: AMH16/AML16 (antibody, IgG2, V domains shown)
VH: B2 VH with R31S, S55N, N59K, A79V, R99K, Y102V
VL: EIVMTQSPATLSVSPGERATLSCRASQSISTSLAWYQQKPGQAPRLLIYGTSTRATGIPARFSGSGSGTEFTLTISSLQSEDFAVYFCQQYDIWPLTFGGGTKVEIK
notes: also called AM-16
In assay [1], B7 came in with an MFI of 6.

B8: AMH21/AML21 (antibody, IgG2, V domains shown)
VH: EVQLVESGGGSVQPGGSLRLSCAASGFTFSSYSMNWVRQAPGKGLEWVSIISSRSSIIHYADSVKGRFTISRDNAKNSLYLQMNSLRDEDTAVYYCARPKVGGGMDVWGQGTTVTVSS
VL: DIQMTQSPSSLSASVGDRVTITCRASQGISNYLAWYQQKPGKFPELLIYAASTLQSGVPSRFSGSGSGTDFTLTISSLQPEDVATYYCQKYNRAPFTFGPGTKVDIK
notes: also called AM-21
For B8, the MFI in assay [3] amounted to 6.

B9: AMH5/AML5 (antibody, IgG2, V domains shown)
VH: QVQLQESGPGLVKPSETLPLTCTVSGGSIRSYYWSWIRQPAGKGLEWIGRIYRSGNTIYNPSLKSRVTMSIDTSKNQFSLTLSSVTAADTAVYYCARENYSESSGLYYYYGMDVWGQGTTVTVSS
VL: DIQMTQSPSSLSASVGDRVTITCRASQGIRNDLGWYQQKPGKAPKRLIYAASSFQSGVPSRFSGSGSGTGFTLTISSLQPEDFATYYCLQHNSYPPTFGQGTKVEIK
notes: IgG2 XenoMouse; also called AM-5
In assay [2], B9 gave an MFI of 9.

B10: AMH1/AML1 (antibody, V domains shown)
VH: QVQLQESGPGLVKPSETLSLTCTVSGGSISNYYWNWIRQSPGKGLEWIGDIYYSGSTNYNPSLKSRVTISVDTSKNQFSLKLSSVTTADTAVYYCARDGELANYYGSGSYQFYYYYGMDVWGQGTTVTVSS
VL: B9 VL with Q3L, F54L, G70E, Y94N, P96F, Q100P, E105D
notes: also called AM-1
In assay [2], B10 had an MFI of 11.

B11: AMH18/AML18 (antibody, IgG2, V domains shown)
VH: QVQLVQSGAEVKKPGASVKVSCKASGYSFTDYYMHWVRQAPGQGLEWMGWMHPNSGGTDLAQRFQGRVTMTRDTSISTAYMELSRLRSDDTAVYYCARGGYCSTLSCSFYWYFDLWGRGTLVTVSS
VL: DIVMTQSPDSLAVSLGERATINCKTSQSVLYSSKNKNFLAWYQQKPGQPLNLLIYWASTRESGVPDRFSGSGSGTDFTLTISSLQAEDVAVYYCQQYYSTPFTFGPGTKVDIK
notes: also called AM-18
By EC50 (read off the curve) is commonly meant the concentration giving half of the maximal effect. For B11, the “EC50 (read off the curve)” value in assay [5] was approximately 80 pM.

B12: AMH11/AML11 (antibody, IgG2, V domains shown)
VH: QVQLVESGGGVVQPGRSLRLSCATSGITFSSYGMHWVRQAPGKGLEWVAVIWYDGSNKYYADSVKGRFTISRDNSKNTLYLQMNSLRAEDTAVYYCARDTKDYWGQGTLVTVSS
VL: EIVMTQSPATLSVSPGERATLSCRASQSVSSNLAWYQQKPGQAPRLLIYGASTRAAGIPARFSGGGSGTAFTLTISNLQSEDFAVYYCQHYINWPKWTFGQGTKVDIK
notes: also called AM-11
As to B12, in assay [2], the MFI amounted to 9.

Source of the values: patent publication US20110166331A1 (Amgen, published 2011).
